The results in this text go back to IntAct's records for PubMed 19675567.

Sequences and labels used below:
B1: ATPase GET3 (Saccharomyces cerevisiae), Q12154 (parent)
chain: MDLTVEPNLHSLITSTTHKWIFVGGKGGVGKTTSSCSIAIQMALSQPNKQFLLISTDPAHNLSDAFGEKFGKDARKVTGMNNLSCMEIDPSAALKDMNDMAVSRANNNGSDGQGDDLGSLLQGGALADLTGSIPGIDEALSFMEVMKHIKRQEQGEGETFDTVIFDTAPTGHTLRFLQLPNTLSKLLEKFGEITNKLGPMLNSFMGAGNVDISGKLNELKANVETIRQQFTDPDLTTFVCVCISEFLSLYETERLIQELISYDMDVNSIIVNQLLFAENDQEHNCKRCQARWKMQKKYLDQIDELYEDFHVVKMPLCAGEIRGLNNLTKFSQFLNKEYNPITDGKVIYELEDKE

In the assay the parent is B1. As to conditions: with sc61b_human SEC61B.
On to MDLTVEPNLHSLITSTTHKWIFVGGKGGVGKTTSSCSIAIQMALSQPNKQFLLISTDPAHNLSDAFGEKFGKDARKVTGMNNLSCMEIDPSAALKDMNDMAVSRANNNGSDGQGDDLGSLLQGGALADLTGSIPGIDEALSFMEVMKHIKRQEQGEGETFDTVIFDTAPTGHTLRFLQLPNTLSKLLEKFGEITNKLGPMLNSFMGAGNVDISGKLNELKANVETIRQQFTDPDLTTFVCVCISEFLSLYETERLIQELISYDMDVNSIIVNQLLFAENDQEHNSKRSQARWKMQKKYLDQIDELYEDFHVVKMPLCAGEIRGLNNLTKFSQFLNKEYNPITDGKVIYELEDKE [C285S;C288S], for which the “effect of a mutation on the interaction” value was “decreasing interaction”.
